The values that follow come from US20220235103A1.

The target of this assay is SARS-CoV-2 spike protein variant B.1.1.7 (SARS-CoV-2), P0DTC2. Kind of assay: cell-based or functional assay.

Numbering of substitutions follows the chain as printed.

B1: ALE049 (designed binder)
chain: MRGSHHHHHHGSDLGKKLLEAARAGQDDEVRELLKAGADVNAKDYFSHTPLHLAARNGHLKIVEVLLKAGADVNAKDFAGKTPLHLAANEGHLEIVEVLLKAGADVNAQDIFGKTPADIAADAGHEDIAEVLQKAAGSPTPTPTTPTPTPTTPTPTPTGSDLGKKLLEAARAGQDDEVRELLKAGADVNAKDYFSHTPLHLAARNGHLKIVEVLLKAGADVNAKDFAGKTPLHLAANEGHLEIVEVLLKAGADVNAQDIFGKTPADIAADAGHEDIAEVLQKAAGSPTPTPTTPTPTPTTPTPTPTGSDLGKKLLQAARAGQLDEVRELLKAGADVNAKDREGITPLHLAAQHGHLEIVEVLLKAGADVNAKDVWGRTPLHLAAWQGHLEIVEVLLKAGADVNAKDLAGATPLHVAALYGHLEIVEVLLKAGADVNAQDKSGKTPADLAARAGHQDIAEVLQKAAGSPTPTPTTPTPTPTTPTPTPTGSDLGKKLLQAARAGQLDEVRELLKAGADVNAKDREGKTPLHVAAQEGHLEIVEVLLKAGADVNAKDVWGRTPLHLAAWIGHLEIVEVLLKAGADVNAKDVSGATPLHAAALHGHLEIVEVLLNAGADVNAQDKSGKTPADLAARAGHQDIAEVLQKAAGSPTPTPTTPTPTPTTPTPTPTGSDLGKKLLQAARAGQLDEVRELLKAGADVNAKDQEGITPLHVAAHQGHLEIVEVLLKAGADVNAKDVWGRTPLHLAAWRGHLEIVEVLLKAGADVNAKDHAGATPLHAAALSGHLEIVEVLLKAGADVNAQDKSGKTPADLAARAGHQDIAEVLQKAA
B1 showed a VSV Pseudotype Neutralization Assay IC50 of 1.7 ng/mL.

B2: vS07_29B10 (designed binder)
chain: MRGSHHHHHHGSDLGKKLLQAARAGQLDEVRELLKAGADVNAKDREGITPLHLAAQHGHLEIVEVLLKAGADVNAKDVWGRTPLHLAAWQGHLEIVEVLLKAGADVNAKDLAGATPLHVAALYGHLEIVEVLLKAGADVNAQDKSGKTPADLAARAGHQDIAEVLQKAA
Regarding B2, the VSV Pseudotype Neutralization Assay IC50 is 4.6 ng/mL.

B3: vS07_23E04 (designed binder)
chain: B2 chain with R45Q, L53V, Q56H, H57Q, Q90R, L111H, V119A, Y123S
Turning to B3, the VSV Pseudotype Neutralization Assay IC50 worked out at 11.7 ng/mL.

B4: vS07_12C06 (designed binder)
chain: B2 chain with I48K, L53V, H57E, Q90I, L111V, A112S, V119A, Y123H, K134N
As for B4, the VSV Pseudotype Neutralization Assay IC50 was determined as 5.4 ng/mL.
